Literature values, collected in patent publication US7858117B2, “Amphoteric liposomes and their use” (Novosom AG, priority 2002, dated 2010).

Row | Substance | pI (protein) | pK value of the carboxyl group (state of the art)
1 | lysozyme | 11.5 | –
2 | cholesterol hemisuccinate | – | approximately 4.5
